Data reported in paper PMC8184817, “Transmission of light signals from the light-oxygen-voltage core via the hydrophobic region of the β-sheet surface in aureochrome-1” (Scientific Reports, 2021).

B1: Photozipper (PZ), N-terminally truncated aureochrome-1 of Vaucheria frigida, wild type [Vaucheria frigida] / itself (parent)
chain: GSISSELTEAQKVERRERNREHAKRSRVRKKFLLESLQQSVNELNHENNSLKESIREHLGPRGDSLIAQSSPEADTLLTDNPSKANRILEDPDYSLVKALQMAQQNFVITDASLPDNPIVYASRGFLTLTGYSLDQILGRNCRFLQGPETDPRAVDKIRNAITKGVDTSVCLLNYRQDGTTFWNLFFVAGLRDSKGNIVNYVGVQSKVSEDYAKLLVNEQNIEYKGVRTSNMLRRK

Variants of: B1
Assay: DLS
Conditions: with itself

Row | Variant | hydrodynamic size (D (dark) state) [nm] | hydrodynamic size (L (light) state) [nm]
1 | GSISSELTEAQKVERRERNREHAKRSRVRKKFLLESLQQSVNELNHENNSLKESIREHLGPRGDSLIAQSSPEADTLLTDNPSKANRIAEDPDYSAVKAAQMAQQNFVITDASLPDNPIVYASRGFLTLTGYSLDQILGRNCRFLQGPETDPRAVDKIRNAITKGVDTSVCLLNYRQDGTTFWNLFFVAGLRDSKGNIVNYVGVQSKVSEDYAKLLVNEQNIEYKGVRTSNMLRRK [chain 1 L89A L96A L100A] | 3.05 | 3.86
2 | GSISSELTEAQKVERRERNREHAKRSRVRKKFLLESLQQSVNELNHENNSLKESIREHLGPRGDSLIAQSSPEADTLLTDNPSKANRILEDPDYSLVKAAQMAQQNFVITDASLPDNPIVYASRGFLTLTGYSLDQILGRNCRFLQGPETDPRAVDKIRNAITKGVDTSVCLLNYRQDGTTFWNLFFVAGLRDSKGNIVNYVGVQSKVSEDYAKLLVNEQNIEYKGVRTSNMLRRK [chain 1 L100A] | 3.18 | 3.88
